The source of these data is the DeepSol protein solubility set.

The series is described as follows: soluble on expression in E. coli; label from the status in PepcDB or PDB records.
For the sequence “MGSDKIHHHHHHMSMILTSKFVDRERELNFLREHYHSGKAELIVIYGRRRIGKTYLLRKFLEETNGIYLLAEENETNLEDFSLRLADYFKDPFLKENPIRTWGAFFTYLAGKSTKRLVVVIDGVQYLVRAEKGFLSTLQKYWDLYLSSTKIMLILCGSLVSFMEGILSGKSPIYGRRTGTWKVEEMSFFDVLKFHPIDIETAIKIYGVFGGVPQYWVDYDPGKDFWENIKDLVLSKGAKYYDEPKYLLKEELRDVSRYFSILRAISLGYSRFGQIADAARIETKSLGKYLNVLEEMGYIREEKPIVGRGKTVYKINEHFFNFWFRFVFPRRSEIEMGFDVVEEIKKEFNNYLGPVFEEISRQFLIEMNKRKKLPFRFTKIGRWWYKGEEIDLVALNEDEKKALFIEVKWKNLERKEAYKILKDLKRKAELTGLHDWNKAYGIIAKSIMEKEELREEGFLAWDLRDFELIN”, the “soluble on expression in E. coli” value is listed as “not soluble”. Take “MAHHHHHHMSILCTISGQTPEEPVVSKTGYVFEKRLIEKHILNYGICPVSGEVLTLQDLYPLKNEQVVKPRPITASSIPGLLSILQTEWDAIISEMFTLRTHVNDIRNQLTHSLYQYDAATRVIAKLLKEKNDYKEEVKKLRNQILSIKSGNDLNEFEVGLSEDLLNEMQEVAKNLLMTRKKRNIEHVSSAEQWKEVTNTNEFDVHSAAIPGVTCLSLDINELKYSYYDDHKNHSFFSGGMDGNVYYVSLEQSKVLAKLQGHLKKVTAIVAHPKYSLCISGANDKTVRIWKGDVETNEFATAHVIAKHKDQITSLALHPMENYFVSSSKDNVWILNDLETSRSIKICKDTPSPFRQLAIHPDGIMLGIGCEDSNIHIFDMKSQEYKASLSGHTSHVSYISFSENGYYLASCSKDKTVKLWDLRKAQCFQTIDVEELPRSICFDFSGKYLSLAAGNDVHVFNFEAKTKAVLVNTLSAHTDAVTQTCFGSRTAYLLSSSMDKTVKVWS”: the “soluble on expression in E. coli” value is recorded as “not soluble”. As to “MNKEERAKRQSKIRNFSIIAHIDHGKSTLADRILEKTNALTQREMKAQLLDSMDLERERGITIKLNAIQLNYKAKDGEEYILHLIDTPGHVDFTYEVSRSLAACEGAILVVDAAQGIEAQTLANVYLALDNNLEILPVINKIDLPSADPERVRQEVEDVIGLDASEAVLASAKAGIGIEEILEQIVEKVPAPTGDSEEPLQCMIFDSLYDPYRGVIAYIRVVNGTVKVGDKVRMMATGKEFEVTEVGVFTPKTTQRDELTVGDVGFLAASIKNVGDTRVGDTITHAKRPAAEPLAGYRKLNPMVFCGLYPIDSARYNDLRDALEKLELNDSALEFEPETSQALGFGFRCGFLGLLHMEILQERIEREFKIDLITTAPSVIYKVFLTNGEDMIVDNPSNMPDPQTIDRVEEPFVKAAIMVPNDYVGAVMEICQGKRGTFIDMQYLDETRVTLTYEIPLSEIVYDFFDQLKSNTKGYASFDYELIGYKPSKLVKMDILLNSEQVDALSFIVHRDSAYDRGKVIVEKLKELIPRQQFEVPIQATIGNKVVARSTIKAMRKNVLAKCYGGDISRKRKLLDKQKEGKKRMKSVGSVEVPQEAFMAVLKMDDN”, the “soluble on expression in E. coli” value is listed as “soluble”. In the case of “MSLGGDQAAGAVLPVTIFTARKFITMERGAPEATAVAVAGKRIVAAGSLAEVKTAVGSRPFTLDETFASKIVMPGLIDQHLHPVLGALTLAVEVIAPEDWVLPGGTHKAAGSADAYQARLKAADAKLDKPDAWLLTWGYHALWHGKLDRAALDAINPTRPIAVWHRSCHEFYLNTPALAALGISEAMTQNQGQASEQSNWREGHFWEGGLNLMMTPMLKVLATPERLAFGLKQMVSYLHANGVTAYMEPGALYTPDMWKLYEQILGAPETPMYATFIADGRGIVDRVGLDGALDAVEQQIAVAPEAPGRKLMFFPGQIKLFADGAIISQLMQMKDGYLDGHQGEWIIPPDELERRARLFWNAGYQIHTHVNGDLGLEKLLDILEKLNAEHPRPDHRSVIVHFANSTEDQVARIKRLGALVSANPYYTTGFADKYSAVGLGPERADAMVRAKSVLDQGVPLSYHSDLPMAPSAPLYLAWCGVNRLTPSGRVAGPEQRVSVDAALRAITIEAAYSWRHEDQLGSIAPGKIANFTVLEQDPYAVPPEQLKDVPIWGTVFEGRVFPVGREGHHHHHH”, the “soluble on expression in E. coli” value is “soluble”. Consider “ISEFSDWQETLLEHLTQWVEAEIERDIAVDSHEESQRLLEATFNSPETFIGILDADGTLIRANETALGFIDADAADVCGEPFCETPWWNHDEAVANRCREAVERTRAGETVRFEAEHVGADGQRISTSVVARPVTAD”, for which the “soluble on expression in E. coli” value is recorded as “not soluble”.

As for “MAHHHHHHMQQQQQVPVGLQLMRQPYRATAEQFQRFIVGLDAVLNQWTALHLVSQHCDLSALTSMYRELVSWFQKDGEVYSDDLEIFFENFFGEARSVIVEDDSMKEVGDVLHDMYCRCCQNDFSTVERYVASLEVYRRVNPVQLSMNVGGADDEDELAGAGAMSNTYDGVVGNEEEEMETMGDGLDMKDEVEESEQRKKRRSKKRKNAYERDADGWCVVRN”, the “soluble on expression in E. coli” value is “not soluble”. In the case of “MSLKIIDFRLRPPAMGFLNARIYTRPDIRNRFTRQLGFEPAPSAEEKSLELMFEEMAAAGIEQGVCVGRNSSVLGSVSNADVAAVAKAYPDKFHPVGSIEAATRKEAMAQMQEILDLGIRIVNLEPGVWATPMHVDDRRLYPLYAFCEDNGIPVIMMTGGNAGPDITYTNPEHIDRVLGDFPDLTVVSSHGNWPWVQEIIHVAFRRPNLYLSPDMYLYNLPGHADFIQAANSFLADRMLFGTAYPMCPLKEYTEWFLTLPIKPDAMEKILHGNAERLLAQAGREGHHHHHH”, the “soluble on expression in E. coli” value was “soluble”.

For the sequence “MGSDKIHHHHHHMLHRRKTYTIRPERLQEFTEFFHTYLYPLQISHGARLVGRWVNEAEDEVIAIWEYRDREHYEQVDRDVRGSTLRREAMKKRARLGKNLYIKSTEDFLTATGVYAPPRAIVSVTAYITNEAGEVLLVRNLHRGDTYEMPGGQVENHESILDAVKREVKEETGADVTIEGITGIYQNVSSHVLCVAFRGTYTGGELRPQEGETAEVGFFDLNRENIDTYIKREHFQLRTLDAMDPHYFPHALYKVRPYELISRYDGNAPSALSGQN”, the “soluble on expression in E. coli” value is on record as “not soluble”. On to “MVMSSEGGEDRWVFGYGSLMWRPGFPFIDRRTAVLHGRRRAFCIYSVHHRGTYERPGLVLGLAPGGSVRGMAYRVAAAEWEGVYAYLREREQPTETYFETWREVKVDGGDKAPALVFLSDMKHSQWAGDLTLEQQAALIAGAVGLSGPNIDYLRDLVMHLHEDGVRDHAMEKLLKMVEAREAALEHHHHHH”, for which the “soluble on expression in E. coli” value was “not soluble”.

For “MSLKMTFCRAVCLAAAFLLMGCDEAPETTTASPAAQVLEGKTMGTLWRVSVVGIDAKRAAELQTKIQTQLDADDWLLSTYKNDSALMRFNHSRSLAPWPVSEAMADIVTSALRIGAKTDGAMDITVGPLVNLWGFGPDRQPLHIPTPAQIDAAKAKTGLQHLQVIDRAGHQFLQKDLPDLYVDLSTVGEGYAADHLARLMEQEGIARYLVSVGGALSSRGMNAQGQPWRVAIQKPTDRENAVQAIVDINGHGISTSGSYRNYYELDGKRVSHVIDPQTGRPIEHNLVSVTVIAPTALEADGWDTGLMVLGTQKAQEVVRREGLAVFMIMKEGEGFKTWMSPQFKTFLVSDKNEGGSHHHHHH”, the “soluble on expression in E. coli” value was “soluble”. As for “SDYFRSCWGPRSPAGHRVRGSDVAGRQDGLLWYKDAGQLVTGEFSMAVVQANNLLEDQSQVESGALSMAEPGPQGTFIGVYDGHGGPETARFINDHMFHHLRRFATEHKCMSTDVIRKAFQATEEGFLSLVSKQWSLKPQIAAVGSCCLVGVICSGTLYVANLGDSRAVLGRFVKSTGEVVATQLSSEHNACYEEVRQELQASHPDDPQIVVLKHNVWRVKGLIQISRSIGDVYLKRPEYNREPLHSKFRLRETFKRPILSSEPAIAVHQIQPNDHFVIFASDGLWEHLSNQEAVDLVQNNPRNGIARRLVKVAMQEAAKKREMRYSDLKKIDRGVRRHFHDDITVIVVFLDSNAISKANWSRGPSVSLRGGGVTLPANSLAPFSTPTVLSSTY”, the entry is “soluble”. “MNVINETANVLKLETGSVTSAKGFSAVGIHTGVKRKRKDLGAIVCEVPASSAAVYTLNKVQAAPLKVTQESIAVEGKLQAMIVNSGIANACTGKRGLDDAYTMRAVGAETFHIPEHYVAVTSTGVIGEFLPMDVITNGIRQLKPEATIEGAHAFNEAILTTDTVEKHTCYQTIVNGKTVTVGGVAKGSGMIHPNMATMLSFVTTDANIDHGHLQGALSAITNETFNRITVDGDTSTNDMVVVMASGLAENEALTPEHPDWANFYKALQLACEDLAKQIARDGEGATKLIEVEVTGAANDQEAGMVAKQIVGSDLVKTAIYGADANWGRIICAIGYSGCEVNQETIDIAIGPIVTLKQSEPTGFSEEEATAYLKEADPVKISVNLHIGNGTGKAWGCDLTYDYVRINAGYRTLEHHHHHH”: the “soluble on expression in E. coli” value is “not soluble”.
